Source: the supplement of paper PMC6755084

Tested on: F1*sub RNA substrate (template-directed ligation)
Assay: fraction ligated after 30 min (ligated reads / total reads); higher = more ligase activity; sequences stand for … in GAGACCGCAACTGAAAAGTTGT…AGTTCTGCACGTAGAAGCAAAAGGC
Details: 42 °C
In short: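 The ligase ribozyme variants were produced by PCR amplification of oligo-pool templates, T7 transcription and purification on gel. Their ligated and unligated forms were gel-separated, then reverse transcribed with barcoded primers before MiSeq sequencing. Core bases were filtered at a quality of ≥20, and fraction ligated per variant was ligated reads over total reads.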

Row | Sequence | fraction ligated
1 | TATCACTTGTCGAAGAACTTTGATGGGTTGA [3d1937] | 0.796
2 | TATCACTTGTCGAAGAACTTTGGAGGGTTGA [3d1939] | 0.111
3 | TATCACTTGTCGAAGAACTTTGGATGGGTTA [3d1941] | 0.779
4 | TATCACTTGTCGAAGAACTTTGGATGGGTTG [3d1942] | 0.798
5 | TATCACTTGTCGAAGAACTTTGGATGGTTGA [3d1940] | 0.187
6 | TATCACTTGTCGAAGAACTTTGGTGGGTTGA [3d1938] | 0.173
7 | TATCACTTGTCGAAGAATTTGGATGGGTTGA [3d1935] | 0.776
8 | TATCACTTGTCGAAGACACTGGATGGGTTGA [3d1957] | 0.767
9 | TATCACTTGTCGAAGACACTTGATGGGTTGA [3d1958] | 0.663
10 | TATCACTTGTCGAAGACACTTGGAGGGTTGA [3d1960] | 0.0758
11 | TATCACTTGTCGAAGACACTTGGATGGGTTA [3d1962] | 0.721
12 | TATCACTTGTCGAAGACACTTGGATGGGTTG [3d1963] | 0.794
13 | TATCACTTGTCGAAGACACTTGGATGGTTGA [3d1961] | 0.106
14 | TATCACTTGTCGAAGACACTTGGTGGGTTGA [3d1959] | 0.119
15 | TATCACTTGTCGAAGACACTTTATGGGTTGA [3d1964] | 0.16
16 | TATCACTTGTCGAAGACACTTTGAGGGTTGA [3d1966] | 0.0437
17 | TATCACTTGTCGAAGACACTTTGATGGGTTA [3d1968] | 0.15
18 | TATCACTTGTCGAAGACACTTTGATGGGTTG [3d1969] | 0.732
19 | TATCACTTGTCGAAGACACTTTGATGGTTGA [3d1967] | 0.0642
20 | TATCACTTGTCGAAGACACTTTGGAGGGTTA [3d1975] | 0.136
21 | TATCACTTGTCGAAGACACTTTGGAGGGTTG [3d1976] | 0.08
22 | TATCACTTGTCGAAGACACTTTGGAGGTTGA [3d1974] | 0.0837
23 | TATCACTTGTCGAAGACACTTTGGATGGGTT [3d1979] | 0.763

Row | Sequence | fraction ligated
24 | TATCACTTGTCGAAGACACTTTGGATGGGTTA [2d219] | 0.803
25 | TATCACTTGTCGAAGACACTTTGGATGGGTTG [2d220] | 0.856
26 | TATCACTTGTCGAAGACACTTTGGATGGTTA [3d1977] | 0.364
27 | TATCACTTGTCGAAGACACTTTGGATGGTTG [3d1978] | 0.432
28 | TATCACTTGTCGAAGACACTTTGGATGGTTGA [2d218] | 0.615
29 | TATCACTTGTCGAAGACACTTTGGGGGTTGA [3d1970] | 0.133
30 | TATCACTTGTCGAAGACACTTTGGTGGGTTA [3d1972] | 0.103
31 | TATCACTTGTCGAAGACACTTTGGTGGGTTG [3d1973] | 0.0779
32 | TATCACTTGTCGAAGACACTTTGGTGGTTGA [3d1971] | 0.0847
33 | TATCACTTGTCGAAGACACTTTGTGGGTTGA [3d1965] | 0.0368
34 | TATCACTTGTCGAAGACATTGGATGGGTTGA [3d1950] | 0.787
35 | TATCACTTGTCGAAGACATTTGATGGGTTGA [3d1951] | 0.329
36 | TATCACTTGTCGAAGACATTTGGAGGGTTGA [3d1953] | 0.021
37 | TATCACTTGTCGAAGACATTTGGATGGGTTA [3d1955] | 0.788
38 | TATCACTTGTCGAAGACATTTGGATGGGTTG [3d1956] | 0.801
39 | TATCACTTGTCGAAGACATTTGGATGGTTGA [3d1954] | 0.133
40 | TATCACTTGTCGAAGACATTTGGTGGGTTGA [3d1952] | 0.05
41 | TATCACTTGTCGAAGACCTTGGATGGGTTGA [3d1943] | 0.768
42 | TATCACTTGTCGAAGACCTTTGATGGGTTGA [3d1944] | 0.76
43 | TATCACTTGTCGAAGACCTTTGGAGGGTTGA [3d1946] | 0.198
44 | TATCACTTGTCGAAGACCTTTGGATGGGTTA [3d1948] | 0.773
45 | TATCACTTGTCGAAGACCTTTGGATGGGTTG [3d1949] | 0.79
46 | TATCACTTGTCGAAGACCTTTGGATGGTTGA [3d1947] | 0.299

Row | Sequence | fraction ligated
47 | TATCACTTGTCGAAGACCTTTGGTGGGTTGA [3d1945] | 0.218
48 | TATCACTTGTCGAAGACTTTGGATGGGTTGA [3d1925] | 0.784
49 | TATCACTTGTCGAAGCACTTGGATGGGTTGA [3d1928] | 0.747
50 | TATCACTTGTCGAAGCACTTTGATGGGTTGA [3d1929] | 0.736
51 | TATCACTTGTCGAAGCACTTTGGAGGGTTGA [3d1931] | 0.108
52 | TATCACTTGTCGAAGCACTTTGGATGGGTTA [3d1933] | 0.723
53 | TATCACTTGTCGAAGCACTTTGGATGGGTTG [3d1934] | 0.783
54 | TATCACTTGTCGAAGCACTTTGGATGGTTGA [3d1932] | 0.159
55 | TATCACTTGTCGAAGCACTTTGGTGGGTTGA [3d1930] | 0.0884
56 | TATCACTTGTCGAAGCATTTGGATGGGTTGA [3d1927] | 0.811
57 | TATCACTTGTCGAAGCCTTTGGATGGGTTGA [3d1926] | 0.757
58 | TATCACTTGTCGAGAACTTTGGATGGGTTGA [3d1905] | 0.819
59 | TATCACTTGTCGAGACACTTGGATGGGTTGA [3d1908] | 0.793
60 | TATCACTTGTCGAGACACTTTGATGGGTTGA [3d1909] | 0.74
61 | TATCACTTGTCGAGACACTTTGGAGGGTTGA [3d1911] | 0.104
62 | TATCACTTGTCGAGACACTTTGGATGGGTTA [3d1913] | 0.765
63 | TATCACTTGTCGAGACACTTTGGATGGGTTG [3d1914] | 0.797
64 | TATCACTTGTCGAGACACTTTGGATGGGTTGA [2d208] | 0.816
65 | TATCACTTGTCGAGACACTTTGGATGGTTGA [3d1912] | 0.166
66 | TATCACTTGTCGAGACACTTTGGTGGGTTGA [3d1910] | 0.0759
67 | TATCACTTGTCGAGACATTTGGATGGGTTGA [3d1907] | 0.829
68 | TATCACTTGTCGAGACCTTTGGATGGGTTGA [3d1906] | 0.788
69 | TATCACTTGTCGAGCACTTTGGATGGGTTGA [3d1904] | 0.749

Row | Sequence | fraction ligated
70 | TATCACTTGTCGGACACTTTGGATGGGTTGA [3d1902] | 0.785
71 | TATCACTTGTCGTAAAACTTGGATGGGTTGA [3d2060] | 0.782
72 | TATCACTTGTCGTAAAACTTTGATGGGTTGA [3d2061] | 0.781
73 | TATCACTTGTCGTAAAACTTTGGAGGGTTGA [3d2063] | 0.0898
74 | TATCACTTGTCGTAAAACTTTGGATGGGTTA [3d2065] | 0.764
75 | TATCACTTGTCGTAAAACTTTGGATGGGTTG [3d2066] | 0.791
76 | TATCACTTGTCGTAAAACTTTGGATGGGTTGA [2d234] | 0.818
77 | TATCACTTGTCGTAAAACTTTGGATGGTTGA [3d2064] | 0.185
78 | TATCACTTGTCGTAAAACTTTGGTGGGTTGA [3d2062] | 0.0841
79 | TATCACTTGTCGTAAAATTTGGATGGGTTGA [3d2059] | 0.803
80 | TATCACTTGTCGTAAACACTGGATGGGTTGA [3d2081] | 0.787
81 | TATCACTTGTCGTAAACACTTGATGGGTTGA [3d2082] | 0.727
82 | TATCACTTGTCGTAAACACTTGGAGGGTTGA [3d2084] | 0.0636
83 | TATCACTTGTCGTAAACACTTGGATGGGTTA [3d2086] | 0.492
84 | TATCACTTGTCGTAAACACTTGGATGGGTTG [3d2087] | 0.774
85 | TATCACTTGTCGTAAACACTTGGATGGGTTGA [2d237] | 0.786
86 | TATCACTTGTCGTAAACACTTGGATGGTTGA [3d2085] | 0.105
87 | TATCACTTGTCGTAAACACTTGGTGGGTTGA [3d2083] | 0.119
88 | TATCACTTGTCGTAAACACTTTATGGGTTGA [3d2088] | 0.0805
89 | TATCACTTGTCGTAAACACTTTGAGGGTTGA [3d2090] | 0.0504
90 | TATCACTTGTCGTAAACACTTTGATGGGTTA [3d2092] | 0.0833
91 | TATCACTTGTCGTAAACACTTTGATGGGTTG [3d2093] | 0.682
92 | TATCACTTGTCGTAAACACTTTGATGGGTTGA [2d238] | 0.763

Row | Sequence | fraction ligated
93 | TATCACTTGTCGTAAACACTTTGATGGTTGA [3d2091] | 0.0645
94 | TATCACTTGTCGTAAACACTTTGGAGGGTTA [3d2099] | 0.101
95 | TATCACTTGTCGTAAACACTTTGGAGGGTTG [3d2100] | 0.0384
96 | TATCACTTGTCGTAAACACTTTGGAGGGTTGA [2d240] | 0.0926
97 | TATCACTTGTCGTAAACACTTTGGAGGTTGA [3d2098] | 0.0433
98 | TATCACTTGTCGTAAACACTTTGGATGGGTT [3d2103] | 0.628
99 | TATCACTTGTCGTAAACACTTTGGATGGGTTA [2d242] | 0.77
100 | TATCACTTGTCGTAAACACTTTGGATGGGTTG [2d243] | 0.827
101 | TATCACTTGTCGTAAACACTTTGGATGGTTA [3d2101] | 0.169
102 | TATCACTTGTCGTAAACACTTTGGATGGTTG [3d2102] | 0.17
103 | TATCACTTGTCGTAAACACTTTGGATGGTTGA [2d241] | 0.295
104 | TATCACTTGTCGTAAACACTTTGGGGGTTGA [3d2094] | 0.0881
105 | TATCACTTGTCGTAAACACTTTGGTGGGTTA [3d2096] | 0.057
106 | TATCACTTGTCGTAAACACTTTGGTGGGTTG [3d2097] | 0.0291
107 | TATCACTTGTCGTAAACACTTTGGTGGGTTGA [2d239] | 0.0914
108 | TATCACTTGTCGTAAACACTTTGGTGGTTGA [3d2095] | 0.0341
109 | TATCACTTGTCGTAAACACTTTGTGGGTTGA [3d2089] | 0.0322
110 | TATCACTTGTCGTAAACATTGGATGGGTTGA [3d2074] | 0.804
111 | TATCACTTGTCGTAAACATTTGATGGGTTGA [3d2075] | 0.384
